Laboratory results from patent publication US20050042747A1, “Hivgp120-induced bob/gpr15 activation” (priority 2001, published 2005).
Entries after “also recorded” stand apart in the source; their conditions may differ. Read-outs that look alike come from different tables or passages of the source.

Assays:
CXCR6/Bonzo = target: T1, CXCR6/Bonzo (Homo sapiens, UniProt O00574); experiment: gp120-induced calcium flux, Ghost (3) cells transfected with CXCR6/Bonzo; type: cell-based; design: key: — = no calcium flux seen at any dilution tested; details: Ghost (3) CXCR6/Bonzo cells
T1 construct: host or cells: Ghost (3) cells (human osteosarcoma, CD4+)
Text: (§1) Human osteosarcoma cell lines were transfected to express CD4, one or another of the HIV coreceptors, and a Green Fluorescent Protein reporter for active HIV infection, for the purpose of testing which of the known coreceptors was used to induce HIV infection by a given HIV strain (Morner A. J Virol 73:2343-9, 1999 and Deng K Nature 388:296-300, 1997). These cells were obtained from the AIDS Research and Reference Reagent Program, courtesy of Dr. Vineet KewalRamani and Dr. Dan Littman. These cells were grown in DMEM with 10% bovine calf serum supplemented with 0.5 mg/ml G418, 0.1 mg/ml hygromycin, and 1 microgram/ml puromycin, and were used at low passage number (less than 10). We have discovered that these cell lines are also activated by gp120 of certain viral strains, inducing a calcium flux in these cells.
(§2) Within 4 days of plating, coreceptor-transfected Ghost (3) cells (as well as the parent cell line not transfected to express any HIV coreceptors as a control) were put in Locke's medium, then treated with Fluo-4 (5 micrograms/ml for 30 minutes at 37° C.). […] The results are given in the following table, expressed as the minimal concentration of gp120 resulting in a significant calcium flux. […]

CX3CR1 = target: T2, CX3CR1 (Homo sapiens, UniProt P49238); experiment: gp120-induced calcium flux, Ghost (3) cells transfected with CX3CR1; type: cell-based; design: key: — = no calcium flux seen at any dilution tested; details: Ghost (3) CX3CR1 cells
T2 construct: host or cells: Ghost (3) cells (human osteosarcoma, CD4+)
T2 sequence (P49238 1-355): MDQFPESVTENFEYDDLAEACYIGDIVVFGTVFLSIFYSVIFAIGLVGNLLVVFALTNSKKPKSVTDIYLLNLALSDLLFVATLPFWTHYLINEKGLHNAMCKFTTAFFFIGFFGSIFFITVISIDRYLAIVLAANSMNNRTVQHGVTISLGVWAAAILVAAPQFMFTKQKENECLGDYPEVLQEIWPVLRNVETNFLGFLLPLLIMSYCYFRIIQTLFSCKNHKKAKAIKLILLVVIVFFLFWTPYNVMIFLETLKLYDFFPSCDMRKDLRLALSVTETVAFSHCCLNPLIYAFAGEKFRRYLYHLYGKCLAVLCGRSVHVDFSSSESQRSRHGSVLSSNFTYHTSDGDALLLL
Text: as §1, §2

CCR3 = target: T3, CCR3 (Homo sapiens, UniProt P51677); experiment: gp120-induced calcium flux, Ghost (3) cells transfected with CCR3; type: cell-based; design: key: — = no calcium flux seen at any dilution tested; details: Ghost (3) CCR3 cells
T3 construct: host or cells: Ghost (3) cells (human osteosarcoma, CD4+)
T3 sequence (P51677 1-355): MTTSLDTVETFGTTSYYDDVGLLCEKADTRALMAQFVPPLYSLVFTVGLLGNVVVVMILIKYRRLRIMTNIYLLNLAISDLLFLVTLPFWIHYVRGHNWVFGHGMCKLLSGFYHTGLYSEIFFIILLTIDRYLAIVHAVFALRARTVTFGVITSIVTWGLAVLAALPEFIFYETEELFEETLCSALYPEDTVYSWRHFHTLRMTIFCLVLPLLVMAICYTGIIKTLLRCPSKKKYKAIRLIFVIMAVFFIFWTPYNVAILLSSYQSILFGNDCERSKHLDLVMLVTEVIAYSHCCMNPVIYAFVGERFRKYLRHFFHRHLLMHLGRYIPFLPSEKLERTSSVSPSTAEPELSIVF
Text: as §1, §2

CCR5 = target: T4, CCR5 (Homo sapiens, UniProt P51681); experiment: gp120-induced calcium flux, Ghost (3) cells transfected with CCR5; type: cell-based; design: key: — = no calcium flux seen at any dilution tested; details: Ghost (3) CCR5 cells
T4 construct: host or cells: Ghost (3) cells (human osteosarcoma, CD4+)
Method: (§3) Calcium studies were done on HT-29 cells and Ghost (3) cells loaded with Fluo 4. The cells were placed in Locke's buffer containing 5 μg/ml Fluo 4 AM ester (Molecular Probes) for 20 to 30 minutes, then in Locke's buffer for an additional 30 minutes before testing. Various concentrations of gp120IIIB (X4 trophic), gp120CM235 (R5 trophic), gp120mN (X4 trophic), gp12093TH975 (nonsyncytium-inducing primary isolate from an asymptomatic subject, trophism undetermined but likely R5), and gp120SF2 (X4R5 trophic), ranging from 10 nM to less than 1 pM, were added in Locke's buffer.^6 The gp120 proteins were obtained from the AIDS Research Reagent Referral Program. Some HT-29 cells were given one of the following pretreatments: 50 μg/ml anti-Bob37 overnight, 1 μg/ml pertussis toxin overnight, or 4.6 μg/ml U73122 for one hour. With the HT-29 cells only, similar tests were also performed with SDF-1, MIP-1α, MIP-1β, and RANTES rather than gp120. The cells were visualized every 4 seconds in a confocal microscope, using 488 nm argon laser excitation and detection filters appropriate for fluorescein-like dyes.
as §1
(§4) Within 4 days of plating, coreceptor-transfected Ghost (3) cells (as well as the parent cell line not transfected to express any HIV coreceptors as a control) were put in Locke's medium, then treated with Fluo-4 (5 micrograms/ml for 30 minutes at 37° C.). After an additional 30 minute incubation in Locke's buffer at room temperature, the cells were examined in a confocal microscope while gp120 of various viral strains was added, and the cells were examined at 4 second intervals to look for a gp120-induced calcium flux. The results are given in the following table, expressed as the minimal concentration of gp120 resulting in a significant calcium flux. “−” means that no reproducible calcium flux was observed. “ND” means that the gp120 of that viral strain was not tested with the stated coreceptor. […]

Bob = target: T5, Bob (Homo sapiens, UniProt P49685); experiment: gp120-induced calcium flux, Ghost (3) cells transfected with Bob (Fluo-4); type: cell-based; design: key to minimal concentration of gp120 resulting in a significant calcium flux: — = no calcium flux seen at any dilution tested; details: for minimal concentration of gp120 resulting in a significant calcium flux: Ghost (3) Bob cells
T5 construct: host or cells: Ghost (3) cells (human osteosarcoma, also transfected with CD4 and a GFP reporter)
T5 sequence (P49685 1-360): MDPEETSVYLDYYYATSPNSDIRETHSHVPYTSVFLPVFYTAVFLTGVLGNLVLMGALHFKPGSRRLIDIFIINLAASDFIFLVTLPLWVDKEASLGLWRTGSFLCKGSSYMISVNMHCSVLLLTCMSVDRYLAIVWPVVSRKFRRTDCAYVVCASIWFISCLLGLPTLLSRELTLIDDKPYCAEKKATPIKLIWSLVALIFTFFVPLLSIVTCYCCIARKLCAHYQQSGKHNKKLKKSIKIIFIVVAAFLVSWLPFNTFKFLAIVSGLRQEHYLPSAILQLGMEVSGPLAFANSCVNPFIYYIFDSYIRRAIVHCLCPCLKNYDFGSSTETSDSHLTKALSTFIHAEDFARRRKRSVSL
Method: as §3, §1
Within 4 days of plating, coreceptor-transfected Ghost (3) cells (as well as the parent cell line not transfected to express any HIV coreceptors as a control) were put in Locke's medium, then treated with Fluo-4 (5 micrograms/ml for 30 minutes at 37° C.). After an additional 30 minute incubation in Locke's buffer at room temperature, the cells were examined in a confocal microscope while gp120 of various viral strains was added, and the cells were examined at 4 second intervals to look for a gp120-induced calcium flux. The results are given in the following table, expressed as the minimal concentration of gp120 resulting in a significant calcium flux. “−” means that no reproducible calcium flux was observed. “ND” means that the gp120 of that viral strain was not tested with the stated coreceptor.
These cells were treated with serial dilutions (100 or 250 nM to at least 1 pM, or even less if calcium fluxes were noted) of gp120. Gp120s from each of four HIV-1 strains: IIIB, CM235, SF2, and […] were used. Listed is the greatest dilution which induced a significant, reproducible calcium flux. The parental line is known to express CXCR4 at very low levels. Those results indicated by an asterisk are thought to represent this artifact.

[1] = test system: Ghost (3) parental cell line; experiment: gp120-induced calcium flux, Ghost (3) parental cell line; type: cell-based, human; design: key: — = no calcium flux seen at any dilution tested
Method: as §3, §1, §4

Substance | minimal concentration of gp120 resulting in a significant calcium flux (CXCR6/Bonzo) | minimal concentration of gp120 resulting in a significant calcium flux (CX3CR1) | minimal concentration of gp120 resulting in a significant calcium flux (CCR3) | minimal concentration of gp120 resulting in a significant calcium flux (CCR5) | minimal concentration of gp120 resulting in a significant calcium flux (CCR5; listed as IIIB) [nM] | Bob activation / calcium signals in Bob-transfected Ghost (3) cells, in words (Bob) | minimal concentration of gp120 resulting in a significant calcium flux (Bob; serial dilutions) [fM] | minimal concentration of gp120 resulting in a significant calcium flux ([1]; Ghost (3) parental line (expresses CXCR4 at very low levels)) | minimal concentration of gp120 resulting in a significant calcium flux ([1]; Ghost (3) parental line (expresses CXCR4 at very low levels), listed as IIIB) [nM] | minimal concentration of gp120 resulting in a significant calcium flux (Bob; 100 or 250 nM to at least 1 pM) | Bob activation / calcium signals in Bob-transfected Ghost (3) cells, in words (Bob; listed as SF2) | minimal concentration of gp120 resulting in a significant calcium flux ([1]; Ghost (3) parental line)
gp120IIIB: HIV-1 envelope surface protein gp120 of strain IIIB (X4 trophic), from the AIDS Research Reagent Referral Program | — | — | — | about 1 nM | 250 | extremely potent activator | 15 | about 1 nM | 250 |  |  | 
gp120SF2: gp120 of HIV strain SF2 (X4R5 trophic) | — | — | — | — |  |  |  |  |  | — | do not activate Bob; also recorded: did not cause calcium signals | —
